Laboratory results as given in PMC3688935, “Coordinated Binding of Single-Stranded and Double-Stranded DNA by UvsX Recombinase”.

Target: UvsX recombinase (bacteriophage T4, UniProt P04529 1-391)
Assay: fluorescence quenching; no nucleotide cofactor; 20 mM Tris-HCl pH 7.4, 50 mM NaCl, 3 mM MgCl2, 25 C; DNA in nucleotides or base pairs; quadratic fit with 4 nt (bp) site size
Settings: protein: recombinant; tags: none stated (pET27b, E. coli BL21(DE3)); label: AlexaFluor 546 on X (position 23); single strand

UvsX recombinase, sequence (P04529 whole entry): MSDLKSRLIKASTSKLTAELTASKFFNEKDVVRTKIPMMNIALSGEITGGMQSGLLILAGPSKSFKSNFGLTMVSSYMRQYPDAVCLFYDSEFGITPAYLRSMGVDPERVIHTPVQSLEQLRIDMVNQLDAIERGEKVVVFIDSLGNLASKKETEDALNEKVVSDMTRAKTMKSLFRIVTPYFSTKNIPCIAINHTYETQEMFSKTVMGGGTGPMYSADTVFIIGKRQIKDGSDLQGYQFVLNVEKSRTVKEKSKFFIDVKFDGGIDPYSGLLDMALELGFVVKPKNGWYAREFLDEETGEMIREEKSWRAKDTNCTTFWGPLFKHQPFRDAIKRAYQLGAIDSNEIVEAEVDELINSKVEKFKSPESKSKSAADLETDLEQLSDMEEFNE

TTTTTTTTTTTTTTTTTTTTTTTTT (ssDNA, X at position 23 = amino-modifier C2 dT) [dT22XT2 ssDNA]: binds.
